Results from publication PMC12212138.

Tests used:
[1] = biological target: T1, PARP4 BRCT-WGR-CAT WT (human) (UniProt Q9UKK3); assay: EMSA; settings: FP: 50 mM Tris pH 7.5, 50 mM NaCl, 1 mM MgCl2, 0.05% NP40, 2 mM DTT, 5% glycerol, 25 ug/ml BSA, room temp 30 min; EMSA: 50 mM Tris pH 7.5, 50 mM NaCl, 4% …
T1 sequence: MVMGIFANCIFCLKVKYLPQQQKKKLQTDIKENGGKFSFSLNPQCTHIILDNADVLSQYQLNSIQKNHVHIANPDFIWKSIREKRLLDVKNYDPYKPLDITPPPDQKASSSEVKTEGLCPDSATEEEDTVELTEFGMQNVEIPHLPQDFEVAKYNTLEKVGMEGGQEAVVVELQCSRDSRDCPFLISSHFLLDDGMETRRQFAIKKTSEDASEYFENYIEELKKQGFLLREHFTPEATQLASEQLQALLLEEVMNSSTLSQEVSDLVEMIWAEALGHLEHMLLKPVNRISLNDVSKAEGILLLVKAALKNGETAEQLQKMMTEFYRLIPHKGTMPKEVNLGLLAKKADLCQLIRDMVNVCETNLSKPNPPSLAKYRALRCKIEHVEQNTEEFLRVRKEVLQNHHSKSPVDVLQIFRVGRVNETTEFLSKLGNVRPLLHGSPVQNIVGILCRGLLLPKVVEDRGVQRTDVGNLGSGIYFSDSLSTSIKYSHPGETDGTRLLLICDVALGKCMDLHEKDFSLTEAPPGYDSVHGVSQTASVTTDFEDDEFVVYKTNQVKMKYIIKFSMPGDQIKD

[2] = biological target: T2, PARP4 WGR-CAT (human) (UniProt Q9UKK3); assay: FP; settings: FP: 50 mM Tris pH 7.5, 50 mM NaCl, 1 mM MgCl2, 0.05% NP40, 2 mM DTT, 5% glycerol, 25 ug/ml BSA, room temp 30 min; EMSA: 50 mM Tris pH 7.5, 50 mM NaCl, 4% …
T2 sequence: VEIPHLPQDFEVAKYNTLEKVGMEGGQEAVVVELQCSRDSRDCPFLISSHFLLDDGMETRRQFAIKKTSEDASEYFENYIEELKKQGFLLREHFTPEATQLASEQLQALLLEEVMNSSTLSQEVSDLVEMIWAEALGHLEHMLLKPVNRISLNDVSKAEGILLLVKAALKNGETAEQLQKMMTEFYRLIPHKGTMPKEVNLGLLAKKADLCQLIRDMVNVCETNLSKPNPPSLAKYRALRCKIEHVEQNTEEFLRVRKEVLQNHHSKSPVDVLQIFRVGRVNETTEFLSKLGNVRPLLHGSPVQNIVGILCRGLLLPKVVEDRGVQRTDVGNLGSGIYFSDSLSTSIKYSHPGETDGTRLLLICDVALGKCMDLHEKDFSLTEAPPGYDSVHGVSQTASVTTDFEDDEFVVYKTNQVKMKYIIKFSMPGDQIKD

For CCGCGGGC / GCUCAGCGG [Probe 3], the Kd [1] was 11 µM.
With CCGCGGGC / GCUCGCGG [Probe 4] the Kd [1] was 7 µM.
“GGCUGGCUUUAGCUCAGCGGUUACUUCGCGUGUCAUCAAACCACCUCUCUGGGUUGUUCGAGACCCGCGGGCGCUCUCCAGCCCUCUU [vtRNA1-3]” was tested, and the Kd [2] was 93 µM.
